Experimental data from patent US20220177577A1.

B1: CK6-SET0207 (antibody, V domains shown)
VH: QVQLVQSGAAVKKPGESLKISCKGSGYRFTSYWIGWVRQMPGKGLEWMGIIYPGDSDTRYSPSFQGQVTISAGKSISTAYLQWSSLKASDTAMYYCARHGRGYNGYEGAFDIWGQGTMVTVSS
VL: AIQLTQSPSSLSASVGDRVTITCRASQGISSALAWYQQKPGKAPKLLIYDASSLESGVPSRFSGSGSGTDFTLTISSLQPEDFATYYCQQFNSYPLTFGGGTKVEIK
modifications: here or on the partner: SET0207 payload ('Non-cleavable natural') conjugated, Fc modification D265C H435A, DAR 2.0
B2: CK6 S239C-PNU (antibody, V domains shown)
VH: B1 VH
VL: B1 VL
modifications: here or on the partner: PNU (DNA topoisomerase I/II inhibitor) conjugated, Fc modification S239C (printed S2390 in Table 4), DAR 1.4
B3: CK6 S239C-D4 (antibody, V domains shown)
VH: B1 VH
VL: B1 VL
modifications: here or on the partner: calicheamicin (D4) conjugated, Fc modification S239C, DAR 1.72
B4: CK6 S239C-PBD (antibody, V domains shown)
VH: B1 VH
VL: B1 VL
modifications: here or on the partner: PBD (DNA cross linker) conjugated, Fc modification S239C, DAR 1.7
B5: CK6 S239C-DM (antibody, V domains shown)
VH: B1 VH
VL: B1 VL
modifications: here or on the partner: duocarmycin (DM) conjugated, Fc modification S239C, DAR 1.65

Target: CD117 on Kasumi-1 cells and on primary human CD34+ bone marrow cells (human), P10721
Experiment: cell-based or functional assay

Sequence of CD117 on Kasumi-1 cells and on primary human CD34+ bone marrow cells (human), P10721 (P10721 26-976): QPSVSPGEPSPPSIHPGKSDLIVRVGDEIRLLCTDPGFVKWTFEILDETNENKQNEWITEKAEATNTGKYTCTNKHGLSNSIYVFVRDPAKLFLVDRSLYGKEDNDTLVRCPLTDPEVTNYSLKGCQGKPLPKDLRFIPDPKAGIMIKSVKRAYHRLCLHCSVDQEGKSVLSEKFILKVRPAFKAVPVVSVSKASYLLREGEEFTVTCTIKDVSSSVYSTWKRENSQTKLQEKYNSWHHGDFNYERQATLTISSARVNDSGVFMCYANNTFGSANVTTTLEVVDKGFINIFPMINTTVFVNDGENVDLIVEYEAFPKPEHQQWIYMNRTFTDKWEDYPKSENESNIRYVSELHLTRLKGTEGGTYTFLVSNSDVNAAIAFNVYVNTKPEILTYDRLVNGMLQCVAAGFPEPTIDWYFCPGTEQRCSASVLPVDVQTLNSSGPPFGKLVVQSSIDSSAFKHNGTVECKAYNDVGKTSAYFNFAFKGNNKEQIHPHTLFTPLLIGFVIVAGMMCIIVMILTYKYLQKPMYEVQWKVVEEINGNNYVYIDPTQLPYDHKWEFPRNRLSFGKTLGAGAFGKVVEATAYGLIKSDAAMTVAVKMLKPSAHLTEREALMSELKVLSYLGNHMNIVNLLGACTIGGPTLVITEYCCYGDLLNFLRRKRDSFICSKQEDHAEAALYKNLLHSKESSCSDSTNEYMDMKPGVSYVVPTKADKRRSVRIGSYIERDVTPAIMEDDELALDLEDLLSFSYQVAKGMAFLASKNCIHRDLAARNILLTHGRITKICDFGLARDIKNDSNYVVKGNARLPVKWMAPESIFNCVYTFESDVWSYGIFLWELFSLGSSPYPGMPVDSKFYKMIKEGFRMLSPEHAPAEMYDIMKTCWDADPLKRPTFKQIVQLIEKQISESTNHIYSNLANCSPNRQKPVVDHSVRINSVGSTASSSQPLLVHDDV

| Binder | % Efficacy, in vitro Kasumi cell killing assay [%] | % Efficacy, in vitro hCD34 cell killing assay [%] |
| --- | --- | --- |
| B1 | 0 | 9.18 |
| B2 | 85.7 | 74.4 |
| B3 | 0 | 52.3 |
| B4 | 60.7 | 97.3 |
| B5 | 0 | 66.2 |
